The record followed here is PMC2831313.

Assay [1] addresses HapC with cysteine 74 exchanged to serine (Aspergillus nidulans). In words: SDS-PAGE without reducing agent.
Assay [2] deals with HapC with cysteine 78 exchanged to serine (Aspergillus nidulans). Put plainly: SDS-PAGE without reducing agent.
In assay [3] the target is HapC(CCS) (Aspergillus nidulans). Put plainly: SDS-PAGE without reducing agent.
For assay [4], the target named is HapC(CSS) (Aspergillus nidulans). Put plainly: SDS-PAGE without reducing agent.
Assay [5] deals with HapC(SCS) (Aspergillus nidulans). Put plainly: SDS-PAGE without reducing agent.
In assay [6] the target is HapC(SSC) (Aspergillus nidulans). Put plainly: SDS-PAGE without reducing agent.
Assay [7] has as its target N-biotinylated HapB (Aspergillus nidulans). In words: SPR. (In general: Surface plasmon resonance follows binding to a sensor surface in real time, without labels.)
For assay [8], the target named is oxidized HapC (treated with diamide or H2O2) (Aspergillus nidulans). In words: SDS-PAGE under non-reducing conditions.
The target in assay [9] is oxidized HapC(CCS) (treated with diamide or H2O2) (Aspergillus nidulans). In words: SDS-PAGE under non-reducing conditions.

As a reminder, the stoichiometry N is a count of units in the complex or per binding partner. Regarding “HapC with cysteine 74 exchanged to serine (natural protein)”, in assay [1], the stoichiometry N came to 2. In turn, “HapC with cysteine 78 exchanged to serine (natural protein)” returned a stoichiometry N in assay [2] of 2. Substance HapC(CCS) (natural protein) gave a stoichiometry N in assay [3] of 2. In [4], HapC(CSS) (natural protein) yielded a stoichiometry N of 2.

In assay [5], HapC(SCS) (natural protein) registered a stoichiometry N of 2.

HapC(SSC) (natural protein) had a stoichiometry N in assay [6] of 2.

By Kd is commonly meant the constant that tells how readily two partners part at equilibrium. Regarding “heterodimer composed of the HapC(CCS) mutant and HapE (complex)”, the equilibrium dissociation constant (Kd) in [7] was 36.8 nM. In [7], “heterodimer of HapC with cysteine 74 exchanged to serine and HapE (complex)” returned a HapB binding affinity relative to the HapC/HapE heterodimer of 50%. As for “heterodimer of HapC with cysteine 78 exchanged to serine and HapE (complex)”, in assay [7], the HapB binding affinity relative to the HapC/HapE heterodimer is 50%. In assay [8], “oxidized HapC (treated with diamide or H2O2) (natural protein)” registered a stoichiometry N of 2. For the substance “oxidized HapC(CCS) (treated with diamide or H2O2) (natural protein)”, in [9], the stoichiometry N is 2.
